The record followed here is patent publication US20030096306A1.

For this assay, the target named is GCN4 leucine zipper (aa 245-285) fused C-terminal to LexA (yeast). The assay is described as follows: cell-based or functional assay.

Regarding “Gal4 AD-anti-GCN4 (H-R66K) scFv (from UniProt P04386 768-881)”, the growth on -Trp/-Leu/-His plates with 3-AT (HIS3 reporter, two hybrid) worked out at 20 mM 3-AT.
